Source: patent US9707281B2, “Pharmaceutical compositions and methods for digesting atherosclerotic plaques” (Northwestern University, priority 2010, dated 2017)

Test system: Human arterial plaque samples
Experiment: in vitro dissolution and digestion of atherosclerotic plaque specimens (percent reduction of plaque weight)
Conditions: EDTA 0.5-2 mg/ml, β-cyclodextrin 1-100 mMol, tPA 0.5-2 mg/ml, p<0.05
Description: Atherosclerotic plaques from surgical endarterectomies were obtained from various anatomic sites. All experiments were performed by cutting a given plaque into equal parts by weight then exposing them to various agents alone and in combination to determine the most optimal digestion solution. The optimal concentration and conditions for plaque dissolution and digestion were determined for ethylenediaminetetraacetic acid (EDTA), β-cyclodextrin, tPA, collagenase type I, III, IV, and V. Weights of each specimen were obtained prior to exposure of each solution and at different time points to determine percent of digested versus undigested plaque. Additional variables that were assessed and optimized include: 1) different combinations of EDTA, β-cyclodextrin, and the collagenases, 2) temperature, 3) pH, and 4) agitation.
Atherosclerotic plaques were obtained from patients undergoing endarterectomies. The optimal concentration and conditions for plaque dissolution and digestion were determined for ethylenediaminetetraacetic acid (EDTA), β-cyclodextrin, and collagenase type I, III, IV, and V. Variables that were assessed included: 1) combination of different agents, 2) time, 3) temperature, 4) pH, and 5) agitation. Weight of each specimen was measured at different time points to determine percent of undigested plaque. […]

B1: tPA: tissue plasminogen activator (protein, UniProt P00750 36-562, looked up)
Tissue-type plasminogen …: SYQVICRDEKTQMIYQQHQSWLRPVLRSNRVEYCWCNSGRAQCHSVPVKSCSEPRCFNGGTCQQALYFSDFVCQCPEGFAGKCCEIDTRATCYEDQGISYRGTWSTAESGAECTNWNSSALAQKPYSGRRPDAIRLGLGNHNYCRNPDRDSKPWCYVFKAGKYSSEFCSTPACSEGNSDCYFGNGSAYRGTHSLTESGASCLPWNSMILIGKVYTAQNPSAQALGLGKHNYCRNPDGDAKPWCHVLKNRRLTWEYCDVPSCSTCGLRQYSQPQFRIKGGLFADIASHPWQAAIFAKHRRSPGERFLCGGILISSCWILSAAHCFQERFPPHHLTVILGRTYRVVPGEEEQKFEVEKYIVHKEFDDDTYDNDIALLQLKSDSSRCAQESSVVRTVCLPPADLQLPDWTECELSGYGKHEALSPFYSERLKEAHVRLYPSSRCTSQHLLNRTVTDNMLCAGDTRSGGPQANLHDACQGDSGGPLVCLNDGRMTLVGIISWGLGCGQKDVPGVYTKVTNYLDWIRDNMRP
reduction in plaque weight, agent alone: 20%
